In the nanobody polyreactivity screen of Harvey et al. (2022):

Assay: yeast display, Sf9 membrane polyspecificity reagent, FACS + sequencing; frameworks hold sequencing errors
Method in brief: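 Using colony PCR, genes from sorted yeast display clones were amplified, then sequenced on MiSeq at 2 × 250 and filtered by CDR length. The clones had been stained with 10% biotinylated, detergent-solubilized Sf9 membrane reagent for 1 hour at 4 °C and sorted by FACS into low and high (top ~1%) gates on anti-HA and streptavidin fluorescence. Polyreactivity labels come from the gate of origin.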

Sequence	polyreactivity (PSR sort gate)
QVQLVESGGGLVQAGGSLRLSCAASGSIFGYYAMGWYRQAPGKERELVAAIRRSGGSTYYADSVKGRFTISRDNAKNTVYLQMNSLKPEDTAVYYCAARFKSSDWHYYYWGQGTQVTVSS	high polyreactivity
QVQLVESGGGLVQAGGSLRLSCAASGSIFGYYAMGWYRQAPGKERELVAAIRTTGGRTYYADSVKGRFTISRDNAKNTVYLQMNSLKPEDTAVYYCNALQAGVSYDYWGQGTQVTVSS	high polyreactivity
QVQLVESGGGLVQAGGSLRLSCAASGSIFGYYAMGWYRQAPGKERELVAAISGSGGSTYYADSVKGRFTISRDNAKNTVYLQMNSLKPEDTAVYYCDRVRGGYDKMYYWGQGTQVTVSS	high polyreactivity
QVQLVESGGGLVQAGGSLRLSCAASGSIFGYYAMGWYRQAPGKERELVAAISSSGASTYYADSVKGRFTISRDNAKNTVYLQMNSLKPEDTAVYYCNADRRYPTRGGYWGQGTQVTVSS	high polyreactivity
QVQLVESGGGLVQAGGSLRLSCAASGSIFGYYAMGWYRQAPGKERELVAAISYSGGSTYYADSVKGRFTISRDNAKNTVYVQMNSLKPEDTAVYYCAARYASTPYARFGYWGQGSQVTVSS	high polyreactivity
QVQLVESGGGLVQAGGSLRLSCAASGSIFGYYAMGWYRQAPGKERELVAAITTRGGRTYYADSVKGRFTISRDNAKNTVYLQMNSLNPEDTAVYYCAARTGRGRYDYWGQGTQVTVSS	high polyreactivity
QVQLVESGGGLVQAGGSLRLSCAASGSIFGYYAMGWYRQAPGKERELVAAITWRGGTYYADSVKGRFTISRDNAKNTVYLQMNSLKPEDTAVYYCAAPRLATYQWYDYWGQGTQVTVSS	high polyreactivity
QVQLVESGGGLVQAGGSLRLSCAASGSIFGYYAMGWYRQAPGKERELVAAITYSGGRTYYADSVKGRFTISRDNAKNTVYLQMNSLKPEDTAVYYCARAPPGDRFVRYDYWGQGTQVTVSS	high polyreactivity
QVQLVESGGGLVQAGGSLRLSCAASGSIFGYYAMGWYRQAPGKERELVASITRSGDTTYYADSVKGRFTISRDNAKNTVYLQMNSLKPEDTAVYYCAARRWRWYYDGFVRMDYWGQGTQVTVSS	high polyreactivity
QVQLVESGGGLVQAGGSLRLSCAASGSIFGYYAMGWYRQAPGKERELVASITSDTSTNYADSVKGRFTISRDNAQNTVYLQMNSLKPEDTAVYYCNARIAKWKRGYSSTFDYWGQGTQVTVSS	low polyreactivity
QVQLVESGGGLVQAGGSLRLSCAASGSIFGYYAMGWYSQAPGKERELVAAFTASGGSTYYADSVKGRFTISRDNAKNTVYFQMNSLKPEDTAVYYCAAGTHTDYGRYYYWGQGTQVTVSS	low polyreactivity
QVQLVESGGGLVQAGGSLRLSCAASGSIFGYYAMGWYTQAPGKERELVASITRGGSTYYADSVKGRFTISRDNAKNTVYLQMNSLKPEDTAVYYCAAAQWWFRVRGARYYYWGQGTQVTVSS	high polyreactivity
QVQLVESGGGLVQAGGSLRLSCAASGSIFGYYTIGWYRQAPGKEREFVAAITQSGGSTYYADSVKGRFTISRDNAKNTVYLQMNSLKPEDTAVYYCAKQGYLKWGGTGDYWGQGTQVTVSS	high polyreactivity
QVQLVESGGGLVQAGGSLRLSCAASGSIFGYYTMGWYIQAPGKERELVAAITSGGSTNYADSVKGRFTISRDNAKNTVYLQMNSLKPEDTAVYYCAKVSYYPWRYDYWGQGTQVTVSS	low polyreactivity
QVQLVESGGGLVQAGGSLRLSCAASGSIFGYYTMGWYIQAPGKERELVATITSGGSTYYADSVKGRFTISRDNAKNSVSLQMNSLKPEDTAVYYCNADRYWRVYWGQGTQVTVSS	high polyreactivity
QVQLVESGGGLVQAGGSLRLSCAASGSIFGYYTMGWYRQAPGKERELVAAISRRGGSTYYADSVKGRFTISRDNAKKTVYLQMNSLKPEDTAVYYCAADVARSRHFEMDYWGQGTQVTVSS	high polyreactivity

Sequence	polyreactivity (PSR sort gate)
QVQLVESGGGLVQAGGSLRLSCAASGSIFGYYTMGWYRQAPGKERELVAAITRSGATTFYADSVKGRFTISRDKAKNTVYLQMNSLKPEDTAVYYCAAQARGYTRGYWGQGTQVTVSS	high polyreactivity
QVQLVESGGGLVQAGGSLRLSCAASGSIFGYYTMGWYRQAPGKERELVAAITSGGSTNYADSVKGRFTISRDNAKNTVYLQMNSLKPEDTSVYYCAKVSYYPWRYDYWGQGTQVTVSS	low polyreactivity
QVQLVESGGGLVQAGGSLRLSCAASGSIFGYYTMGWYRQAPGKERELVAAITSGGSTNYADSVKGRFTISRDNAKNTVYLQMNSLKPEETAVYYCAKVSYYTWRYDYWGQGTQVTVSS	low polyreactivity
QVQLVESGGGLVQAGGSLRLSCAASGSIFGYYTMGWYRQAPGKERELVARITRGGSTYYADSVKGRFTISRDNAKNTVYLQMNSLKPEDTAVYYCAARRVNAGWTYGLRGNYWGQGTQVTVSS	low polyreactivity
QVQLVESGGGLVQAGGSLRLSCAASGSIFGYYVMGWYRPAPGKERELVAAITRSGSTYYADSVKGRFTISRDNAKNTVYLQMNSLKPEDTAGYYCAADGSYYWYPHTTYDYWGQGTQVTVSS	low polyreactivity
QVQLVESGGGLVQAGGSLRLSCAASGSIFHANAMGWYRQAPGKERELVAAITRSGRSTYYADSVKGRFTISRDNAKNTVYLQMNSLKPEDTAVYYCAARYYAGGLSSYDYWGQGTQVTVSS	high polyreactivity
QVQLVESGGGLVQAGGSLRLSCAASGSIFHGNAMGWYRQAPGKERELVAAITGRGVSTYYADSVKGRFTISRDNAKNTVYLQMKSLKPEDTAVYYCAAVRSKYWYYQGGYSSYGYWGQGTQVTVSS	high polyreactivity
QVQLVESGGGLVQAGGSLRLSCAASGSIFHIYAIGWYRQAPGKERELVAAISWRGDSTSYADSVKGRFTISRDNAKNTVYLQMNSLKPEDTAVYYCARGYGGYRGYYAKRFGYWGQGTQVTVSS	high polyreactivity
QVQLVESGGGLVQAGGSLRLSCAASGSIFHLYAMGWYRQAPGKEREFVAAISSSGGRTYYADSVKGRFTISRDNAKNTVYLQMNSLKPEDTAVYYCATAEQYGTKLRQVSYQYDYWGHGTQVTVSS	low polyreactivity
QVQLVESGGGLVQAGGSLRLSCAASGSIFHPYAMGWYRQAPGKERELVAAISGGGTNTYYADSVKGRFTISRDNAKNTVYLQMNSLKPEDTAVYYCAAERYYWGQGTQVTVSS	high polyreactivity
QVQLVESGGGLVQAGGSLRLSCAASGSIFHPYAMGWYRQAPGKERELVAAISKSGGNTYYADSVKGRFTISRDNAKNTVYLQMNSLKPEDTAVYYCAALDYWGQVTQVTVSS	low polyreactivity
QVQLVESGGGLVQAGGSLRLSCAASGSIFHPYGMGWYRQAPGKERELVARISWSTSSTNYADSVKGRFTISRDNAKNTVYLQMNSLKPEDTAVYYCAADYYVFPGYDYWGQGTQVTVSS	high polyreactivity
QVQLVESGGGLVQAGGSLRLSCAASGSIFHPYGMGWYRQAPGKVRELVAAMTSSGGDTYYADSVKGRFTISRDNAKNTVYLQMNSLKPEDTAVYYCAATGLPGYYAYDYWGQGTQVTVSS	low polyreactivity
QVQLVESGGGLVQAGGSLRLSCAASGSIFHRNTMGWYRQAPGKEREFVAGISWGGGRTYYADSVKGRFTISRDNAKNTVYLQMNSLKPEETAVYYCAAKTGGGGRLSTVYYWGQGTQVTLSS	high polyreactivity
QVQLVESGGGLVQAGGSLRLSCAASGSIFHRYAMGWYTQAPGKERELVAAISWSGGSTYYADSVKGRFTISRDNAKNTVYLQMNSLKPEDTAVYYCNRVAWNYGFGSSAYGYWGQGTQVTVSS	high polyreactivity
QVQLVESGGGLVQAGGSLRLSCAASGSIFHYNAMGWYIQAPGKERELVASISSGGRTYYADSVKGRFTISRDNAKNTVYLQMNSLKPEDTAVYYCAAENFWQTKEYDYWGQGTQVTVSS	low polyreactivity
